The series deals with CTD (nucleocapsid C-terminal RNA binding domain) (SARS-CoV-2, UniProt P0DTC9 247-364). The experiment in a line: ITC. (In general: Isothermal titration calorimetry measures the heat released or taken up as one component is titrated into another.)

The Kd is the constant that tells how readily two partners part at equilibrium. In the case of GGUUCACCGAGGCCACGCGGAGUACGAUCGAGUGUACAGUGAACC (structured_RNA) [s2m-CoV-2], the Kd worked out at 600 ± 200 nM.

Source of the values: article PMC10201421.
